Test results reported in IntAct's records for PubMed 15150219.

B1: Nitrogen regulatory protein P-II (Synechococcus elongatus (strain PCC 7942)), P0A3F4 (parent)
chain: MKKIEAIIRPFKLDEVKIALVNAGIVGMTVSEVRGFGRQKGQTERYRGSEYTVEFLQKLKLEIVVEDAQVDTVIDKIVAAARTGEIGDGKIFVSPVDQTIRIRTGEKNADAI
partner: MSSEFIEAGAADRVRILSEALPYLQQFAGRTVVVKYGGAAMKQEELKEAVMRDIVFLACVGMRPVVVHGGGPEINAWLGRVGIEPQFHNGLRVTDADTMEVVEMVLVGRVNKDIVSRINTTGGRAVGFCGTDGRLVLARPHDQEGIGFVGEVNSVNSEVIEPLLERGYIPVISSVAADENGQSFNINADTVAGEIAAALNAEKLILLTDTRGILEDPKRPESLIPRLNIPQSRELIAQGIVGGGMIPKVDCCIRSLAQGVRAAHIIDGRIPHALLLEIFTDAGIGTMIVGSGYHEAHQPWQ

Variants of: B1
Settings: with argb_syne7 argB

| effect of a mutation on the interaction | Variant |
| --- | --- |
| decreasing interaction | S49D |
| decreasing interaction | S49E |
| decreasing interaction | S49A |
